± gives the uncertainty stated by the source.
Assay: amyloid nucleation score (Sup35N fusion, yeast selection) (log enrichment); library NNK3; higher = more nucleation; inactive = no reads after selection
Procedure, shortened: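 DiMSum was used to calculate nucleation scores as log enrichment of output over input reads, centred on the mode score of non-aggregating sequences. Sequences with fewer than 100 input reads were not scored. Input and output came from Illumina sequencing of plasmid inserts in psi-negative yeast expressing peptides of 20 random codons fused to Sup35N, induced 24 hours with 100 μM copper sulfate and then grown 7 days at 30°C on medium lacking adenine and uracil.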

Question: For FFVLGRSTMSWLR, which amyloid nucleation score is on record?
Answer: Its amyloid nucleation score is “inactive”.

Question: For KIIYKGLYEHLIVMLNIINL, which amyloid nucleation score is on record?
Answer: Its amyloid nucleation score is “inactive”.

Question: Which amyloid nucleation score does the source give for ALFLACNH here?
Answer: The amyloid nucleation score was 1.59 ± 0.095.

Question: Which amyloid nucleation score does the source give for DTMSKPSLLLGIPCVTHDVA here?
Answer: The amyloid nucleation score was “inactive”.

Question: For ALCGNHLKCYKYSGAWRAV, which amyloid nucleation score is on record?
Answer: The amyloid nucleation score was “inactive”.

Question: With GVHWETDEGNVVRL as the substance, how does the amyloid nucleation score read?
Answer: Its amyloid nucleation score is “inactive”.

Question: Which amyloid nucleation score does the source give for KNEAPRTGQTRPRSTGMYRI here?
Answer: Its amyloid nucleation score is “inactive”.

Question: With TYGGLFLVHTVYVVALNWVR as the substance, how does the amyloid nucleation score read?
Answer: Its amyloid nucleation score is “inactive”.

Question: With TSRTGRMEYISRELGQRVWM as the substance, how does the amyloid nucleation score read?
Answer: The amyloid nucleation score was “inactive”.

Question: For LIAYRVGHSGSAQYSSTCGW, which amyloid nucleation score is on record?
Answer: The amyloid nucleation score was 1.04 ± 0.13.

Question: For GLPLEWDDSWNVKIVLLCWS, which amyloid nucleation score is on record?
Answer: The amyloid nucleation score was “inactive”.

Question: Which amyloid nucleation score does the source give for RSDLCFC here?
Answer: The amyloid nucleation score was “inactive”.

Question: With GSVFGKVGTVKSEMPRGSSN as the substance, how does the amyloid nucleation score read?
Answer: Its amyloid nucleation score is “inactive”.

Question: For IQLCTKIYSITKV, which amyloid nucleation score is on record?
Answer: Its amyloid nucleation score is “inactive”.

Question: With ASHYTVSFFSENDAHRGACR as the substance, how does the amyloid nucleation score read?
Answer: Its amyloid nucleation score is “inactive”.

Question: Which amyloid nucleation score does the source give for DAKKNLLVGVFCHYRSSQER here?
Answer: Its amyloid nucleation score is “inactive”.

Question: Which amyloid nucleation score does the source give for VLLSRMIYALPGYSVL here?
Answer: Its amyloid nucleation score is 1.93 ± 0.075.

Question: For IMRLHC, which amyloid nucleation score is on record?
Answer: Its amyloid nucleation score is “inactive”.

Question: With NCDNSNGYSTHEIEDRSTLR as the substance, how does the amyloid nucleation score read?
Answer: Its amyloid nucleation score is “inactive”.

Question: With YTFIIGIKHSTSSFNMSFSM as the substance, how does the amyloid nucleation score read?
Answer: Its amyloid nucleation score is 0.613 ± 0.25.

Question: For ILRYLSIVPRNFYRCYGHFG, which amyloid nucleation score is on record?
Answer: The amyloid nucleation score was “inactive”.

Question: For SGVGCKSLFWSSVAYMSIWG, which amyloid nucleation score is on record?
Answer: The amyloid nucleation score was “inactive”.

Question: Which amyloid nucleation score does the source give for VFLILFVLPLFYLNDSPGCA here?
Answer: Its amyloid nucleation score is “inactive”.

Question: For YDWMFLYPTSIS, which amyloid nucleation score is on record?
Answer: Its amyloid nucleation score is 0.319 ± 0.18.

Question: For LILVCSSGRAIMKRAPCKFR, which amyloid nucleation score is on record?
Answer: The amyloid nucleation score was “inactive”.

Question: Which amyloid nucleation score does the source give for VVPIVWHTGSSRVYTEGVLM here?
Answer: Its amyloid nucleation score is -0.65 ± 1.3.

Question: Which amyloid nucleation score does the source give for EDVYFSYGDVWMVIGALTTV here?
Answer: The amyloid nucleation score was “inactive”.

Question: With QWRIRSWHMYDSSLARGLD as the substance, how does the amyloid nucleation score read?
Answer: The amyloid nucleation score was “inactive”.

Question: For HIVSSAMSVT, which amyloid nucleation score is on record?
Answer: Its amyloid nucleation score is “inactive”.

Question: Which amyloid nucleation score does the source give for NKSLWGC here?
Answer: Its amyloid nucleation score is “inactive”.

Question: With AILYTRHG as the substance, how does the amyloid nucleation score read?
Answer: The amyloid nucleation score was 0.082 ± 0.38.

Question: For FNKNTDRGI, which amyloid nucleation score is on record?
Answer: Its amyloid nucleation score is “inactive”.

Question: Which amyloid nucleation score does the source give for FGIKFVIQVDCRHIMHNCVN here?
Answer: The amyloid nucleation score was 0.077 ± 0.87.

Question: With MLIYSIVLGFKFSPPGFTSN as the substance, how does the amyloid nucleation score read?
Answer: Its amyloid nucleation score is “inactive”.

Question: For NRRKLYKGSCGLTFRGSRER, which amyloid nucleation score is on record?
Answer: Its amyloid nucleation score is “inactive”.

Question: For FGQVKSCLAPCKSAAKH, which amyloid nucleation score is on record?
Answer: The amyloid nucleation score was “inactive”.

Question: With VNLGDGHVDDSIASQDMWHK as the substance, how does the amyloid nucleation score read?
Answer: Its amyloid nucleation score is “inactive”.

Question: Which amyloid nucleation score does the source give for GSSKCRRLCGRVRQYSYWNR here?
Answer: The amyloid nucleation score was “inactive”.

Question: Which amyloid nucleation score does the source give for VTELDEWSGIVVEGYNACSS here?
Answer: The amyloid nucleation score was “inactive”.

Question: With PWKCTWFMALEVFRMYLRSF as the substance, how does the amyloid nucleation score read?
Answer: Its amyloid nucleation score is “inactive”.

Question: With EPGILLM as the substance, how does the amyloid nucleation score read?
Answer: The amyloid nucleation score was “inactive”.

Question: Which amyloid nucleation score does the source give for KTSINGKADFG here?
Answer: The amyloid nucleation score was “inactive”.

Question: Which amyloid nucleation score does the source give for LCTESFIISR here?
Answer: Its amyloid nucleation score is “inactive”.

Question: Which amyloid nucleation score does the source give for VGGYI here?
Answer: The amyloid nucleation score was “inactive”.

Question: Which amyloid nucleation score does the source give for TLLIRCYPYIMLYRFAASTD here?
Answer: Its amyloid nucleation score is “inactive”.

Question: With HSVIIAAMLSEISVSGLISG as the substance, how does the amyloid nucleation score read?
Answer: Its amyloid nucleation score is “inactive”.

Question: For TINIQCALGMNQT, which amyloid nucleation score is on record?
Answer: Its amyloid nucleation score is 1.17 ± 0.11.

Question: Which amyloid nucleation score does the source give for SSLIWNLSCELLTWLHVRRW here?
Answer: The amyloid nucleation score was -1.3 ± 2.5.

Question: Which amyloid nucleation score does the source give for SKRARVKWSTQPHFVRYLLE here?
Answer: The amyloid nucleation score was “inactive”.

Question: With WFDFHA as the substance, how does the amyloid nucleation score read?
Answer: The amyloid nucleation score was 0.9 ± 0.25.

Question: With QYSMVVVV as the substance, how does the amyloid nucleation score read?
Answer: Its amyloid nucleation score is “inactive”.

Question: Which amyloid nucleation score does the source give for YKNEMGTIPCRRVTSNCLSY here?
Answer: Its amyloid nucleation score is “inactive”.

Question: For GWRRPNSYDLEAEFMRKSGG, which amyloid nucleation score is on record?
Answer: The amyloid nucleation score was “inactive”.

Question: Which amyloid nucleation score does the source give for VFFAVF here?
Answer: The amyloid nucleation score was “inactive”.

Question: Which amyloid nucleation score does the source give for VIFTIHNGT here?
Answer: The amyloid nucleation score was “inactive”.

Question: For YLGGVRSII, which amyloid nucleation score is on record?
Answer: Its amyloid nucleation score is -0.402 ± 1.9.

Question: Which amyloid nucleation score does the source give for MQFEINRRVGHRSPNAYLE here?
Answer: The amyloid nucleation score was “inactive”.

Question: With ETSITHLGILAVLGCNNGSE as the substance, how does the amyloid nucleation score read?
Answer: The amyloid nucleation score was “inactive”.

Question: With LERYRFKRNMSVIELHNKVM as the substance, how does the amyloid nucleation score read?
Answer: The amyloid nucleation score was “inactive”.

Question: With VKFVCKAELLDLT as the substance, how does the amyloid nucleation score read?
Answer: Its amyloid nucleation score is “inactive”.

Question: Which amyloid nucleation score does the source give for MLNWPIDRDSWRPGFDMWLG here?
Answer: The amyloid nucleation score was -0.426 ± 0.6.

Question: With KGCNYVNNSTAMLSRRSFYS as the substance, how does the amyloid nucleation score read?
Answer: The amyloid nucleation score was “inactive”.

Question: For YTFRMYGLMDNLHCAPWF, which amyloid nucleation score is on record?
Answer: Its amyloid nucleation score is “inactive”.

Question: With ITPWCFLVSCIRVSYAIVPT as the substance, how does the amyloid nucleation score read?
Answer: Its amyloid nucleation score is “inactive”.

Question: With MLDYVF as the substance, how does the amyloid nucleation score read?
Answer: The amyloid nucleation score was “inactive”.

Question: For RVLQKAPRWAMGFARW, which amyloid nucleation score is on record?
Answer: Its amyloid nucleation score is “inactive”.

Question: For GSNRQTVRFNWS, which amyloid nucleation score is on record?
Answer: Its amyloid nucleation score is “inactive”.

Question: For VYKWSNVLM, which amyloid nucleation score is on record?
Answer: The amyloid nucleation score was “inactive”.

Question: With FFYSVLCLLRAVLVDSNLGW as the substance, how does the amyloid nucleation score read?
Answer: The amyloid nucleation score was “inactive”.

Question: Which amyloid nucleation score does the source give for SFVYVSALVSLHGGFADAKF here?
Answer: The amyloid nucleation score was 0.885 ± 0.22.

Question: With ILVSFVVGTNLLWGDASVRW as the substance, how does the amyloid nucleation score read?
Answer: The amyloid nucleation score was 0.236 ± 0.48.

Question: For RLSGSEKVELM, which amyloid nucleation score is on record?
Answer: Its amyloid nucleation score is “inactive”.

Question: Which amyloid nucleation score does the source give for SFLPTV here?
Answer: The amyloid nucleation score was 0.93 ± 0.23.

Question: For PNAIILVQYTYIVGMRGGHS, which amyloid nucleation score is on record?
Answer: Its amyloid nucleation score is 1.11 ± 0.08.

Question: For LSDYLGYDG, which amyloid nucleation score is on record?
Answer: The amyloid nucleation score was “inactive”.

Question: Which amyloid nucleation score does the source give for LEHCLCGLKYPDE here?
Answer: The amyloid nucleation score was “inactive”.

Question: Which amyloid nucleation score does the source give for DSQCLVWYIRFAYNERSHRK here?
Answer: Its amyloid nucleation score is “inactive”.

Question: With ESKTCVVHLSAKCSLSEERT as the substance, how does the amyloid nucleation score read?
Answer: The amyloid nucleation score was “inactive”.

Question: With TTRRSTYGFEIKYILIVFVH as the substance, how does the amyloid nucleation score read?
Answer: The amyloid nucleation score was “inactive”.

Question: Which amyloid nucleation score does the source give for LLSILTWVSIYRRCFSFTAR here?
Answer: The amyloid nucleation score was -0.758 ± 0.88.

From the supplement of paper PMC12042874
